According to the supplement of paper PMC11908140:

B1: library; numbered along this chain (parent)
chain: MRKPRAAVGSGHRKQAASQEGRQKHAKNNSQAKPSACDGLARQPEEVVLQASVSSYHLFRDVAEVTAFRGSLLSWYDQEKRDLPWRRRAEDEMDLDRRAYAVWVSEVMLQQTQVATVINYYTGWMQKWPTLQDLASASLEEVNQLWAGLGYYSRGRRLQEGARKVVEELGGHMPRTAETLQQLLPGVGRYTAGAIASIAFGQATGVVDGNVARVLCRVRAIGADPSSTLVSQQLWGLAQQLVDPARPGDFNQAAMELGATVCTPQRPLCSQCPVESLCRARQRVEQEQLLASGSLSGSPDVEECAPNTGQCHLCLPPSEPWDQTLGVVNFPRKASRKPPREESSATCVLEQPGALGAQILLVQRPNSGLLAGLWEFPSVTWEPSEQLQRKALLQELQRWAGPLPATHLRHLGEVVHTFSHIKLTYQVYGLALEGQTPVTTVPPGARWLTQEEFHTAAVSTAMKKVFRVYQGQQPGTCMGSKRSQVSSPCSRKKPRMGQQVLDNFFRSHISTDAHSLNSAAQ

Variants of: B1
Experiment: 8OG:A repair function score (normalized; synonymous = 0, nonsense = -1) (normalized log-likelihood score); higher = more repair activity (WT-like)
Conditions: with 8OG:A DNA repair reporter (GFP) in HEK-293 MUTYH KO cells
How it was run: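 Per-tile Rosace fitness scores were converted to a normalized repair function score anchored on synonymous and nonsense distributions. That scale puts synonymous medians at 0 and nonsense medians at -1. Variants with starting counts under 300 counts per million were discarded. Input came from sorting viable mCherry+ MUTYH knockout HEK-293 cells, carrying lentiviral MUTYH cDNA NNN codon-scan libraries in 10 pg/ml doxycycline and an 8OG:A GFP repair reporter, into GFP+ and GFP− bins at 72 h, three replicates per tile, followed by tile amplicon sequencing.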
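Also: cells sorted at 72 h after reporter transfection.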

8OG:A repair function score of substitutions, site by site:
Q252: S -0.483 | C -0.576 | Y -0.982 | A -0.658 | I -0.942 | N -0.588 | L -0.863 | F -1.02 | P -1 | K -0.999 | R -1.01 | T -0.856 | E -0.386 | H -0.873 | M -0.854 | V -0.798 | D -1.01 | W -1.04 | G -0.891
E256: F -0.679 | P -1.07 | T -0.514 | R -0.814 | L -0.906 | A -0.756 | G -0.676 | S -0.507 | I -0.901 | V -1.14 | C -0.939 | H -1.34
A253: S -0.559 | M -1.03 | R -1.01 | Y -0.985 | C -0.853 | W -0.975 | H -1.03 | T -0.994 | K -1.02 | I -1.02 | F -1.03 | P -1.02 | V -1 | E -1.02 | L -1.02 | Q -1.02 | G -0.438 | N -1.01 | D -1.03
M255: D -1.03 | T -0.883 | A -0.993 | Q -0.993 | Y -1.02 | L -0.962 | P -1 | R -1.03 | K -1.01 | C -0.788 | V -0.846 | W -1.04 | H -1.03 | G -1.02 | N -1.03 | E -0.876 | I -0.363 | F -0.873 | S -1.01
G258: W -1.49 | T -1.21 | E -1.27 | M -1.19 | K -1.14 | N -1.2 | F -1.24 | Y -1.23 | S -1.05 | R -1.2 | Q -1.21 | I -1.02 | L -1.12 | P -1.06 | V -1.2 | C -1.12 | D -1.04 | H -1.65
A254: D -0.87 | I 0.133 | R -0.99 | L 0.114 | Q -0.213 | P -0.979 | H -0.175 | E -0.62 | C -0.0862 | N -0.427 | G -0.374 | W -0.393 | F 0.057 | S -0.223 | T -2.58e-05 | V 0.0529 | K -0.725 | Y -0.534 | M 0.317
L257: T -0.763 | I -0.176 | P -1 | Y -0.76 | F -0.285 | Q -0.72 | E -1.08 | M -0.192 | A -0.805 | H -0.401 | S -0.983 | R -1.09 | K -1.22 | G -1.04 | V -0.182 | D -0.98 | C -0.298 | N -1.21 | W -0.968
A259: I -0.953 | R -0.0545 | G -0.148 | C -0.242 | Q 0.0355 | F -0.503 | W -0.859 | K -0.197 | Y -0.675 | E -0.0308 | T -0.329 | N -0.257 | V -0.765 | H -0.138 | P -1.09 | S -0.0739 | M -0.739 | D -1 | L -0.889
N251: M -0.915 | L -0.938 | Y -1.01 | Q -0.901 | S -0.903 | V -0.84 | P -1.02 | W -0.879 | T -0.798 | R -1.02
T260: G -0.126 | K -0.0184 | H -0.293 | F -0.281 | A -0.056 | D -0.355 | N -0.111 | C -0.129 | I -0.0181 | L -0.00446 | M -0.0209 | P -1.17 | E -0.154
